The results in this text go back to paper PMC8217507 (Scientific Reports, 2021).

For experiment [1], the target named is E protein of DENV-2 Indonesian isolate (cosmopolitan genotype, Surabaya) (Dengue virus type 2, cosmopolitan …, UniProt P14340, strain). Nature of the experiment: cell-based or functional assay.
Experiment [2] concerns the target T1, DENV2 (strain 16681) prM-E, wild type (Dengue virus type 2, strain 16681, UniProt P29990).
T1 construct: also called wild-type prM-E; DENV-2 prM-E; source: HEK-293T, transfected, in fixed cells
Nature of the experiment: flow cytometry on cells.

B1: HuMAb 3G9 (antibody, V domains shown)
VH: EVQLLDSGGGLVQPGGSLRLSCAASGFTFNDYAMTWVRQAPGKGLEWVSTISGSGDGTYYQESLKGRFTISRDNSKNTLYLLMSSLRVDDTAVYYCAKLFGVGDSDGYWGQGTLVTVSS
VL: QAVVTQEPSLTVSPGGTVTLTCGSSTGAVTSDHYFYWFQQKPGQAPRTLIYQTTNKHPWTPARFSGSLLGGKAALTLSGAQPEDEAEYYCLLSYGGGRPVFGGGTKLTVL
notes: also called 3G9-original; 3G9-Original
In the case of B1, in experiment [1], the “NT50, neutralization of DENV-2 (Indonesian isolate), Vero cells” value (from here on “NT50, neutralization”) was 0.02 µg/mL. For the same molecule, the binding result in experiment [2] was “binds”.

B2: HuMAb 3E1 (antibody, V domains shown)
VH: EVQLLESGGGLVQPGGSLRLSCAASGFTFSRFAMTWVRQAPGKGLEWVSAISGSGGSTFYADSVKGRFTISRDNSKNTLYLQMNSLRAEDTAVYYCVSLGDAWLLYWTPWGQGSLVTVSS
VL: DVVMTQSPLSLPVTLGQPASISCRSSQSLVHGDGNTYLNWFQQRPGQSPRRLIYNVSNRDPGVPDRFSGSGSGTDFTLKISWVEAEDVGVYYCMQATHLPPTFGGGTKVEI
On to B2, for which, in experiment [1], the “NT50, neutralization” value was found to be 0.05 µg/mL. The binding result in experiment [2] is on record as “binds”.

B3: HuMAb 1E5 (antibody, V domains shown)
VH: QVQLVESGGGVVQPGKSLRVSCAASGFIFSSYGMHWVRQAPGKGLEWVAVISYDGRYKFYADSVKGRFTISRDDSRSTLYLQMNSLRSDDTAVYYCARGRPYIGGDYEYDYFYGMDVWGQGTTVIVSS
VL: IVMTQTPLSSPVTLGQPASISCRSSQSLVHSDGNTYLNWLQQRPGQPPRLLIYNISNRFSGVPDRFSGSGAGTDFTLKINRVEAEDVGVYYCMQATHFPYSFGQGTKLEIK
B3: the “NT50, neutralization” value in experiment [1] worked out at 0.69 µg/mL. Moreover, the binding result in experiment [2] was “binds”.

B4: HuMAb 1C3 (antibody, V domains shown)
VH: EVQLVESGGGLVQPGGSLRLSCAASGFTFSDHYIDWVRQAPGKGLEWVGRTSNRANSYTSEYAASVKGRFTISRDDSKNSVYLQMNSLKTEDTAVYFCARDSGWYDFWGQGTLVTVSS
VL: ALTQPASVSGSPGQSITISCTGPSRDLGANNYVSWYQQHPGKAPKLLIYDINNRPSGVPDRFSGSRSGNTASLTISGLQADDEADYYCSSYTRSRTRVFGGGTKLTVL
On to B4, for which, in experiment [1], the “NT50, neutralization” value was 0.12 µg/mL. Further, the binding result in experiment [2] is “binds”.
